6 molecules from article doi:10.1101/2020.05.20.105668 can be followed below.

Test [1] has as its target s10_(long) H199Y/L207V. In words: peptide or protein array.
The target of test [2] is s10_(long) H199Y/T203F. In words: peptide or protein array.
Test [3] deals with s10_(long) H199Y. As to the kind of experiment: peptide or protein array.
The target in test [4] is s10_(long) WT peptide L195[…]212. In words: peptide or protein array.
Test [5] has as its target LOO10-GFP (circularly permuted superfolder GFP with strand 10 removed). In words: other fluorescence titration.
The target is the same in test [6]. In words: competition experiment followed by fluorescence.
For test [7] the target is unchanged. In words: fluorescence complementation.

A value given as a limit tells only on which side of the number the result lay.

As for “LOO10-GFP (circularly permuted superfolder GFP with strand 10 removed) (domain or fragment)”, the fold microarray fluorescence compared to WT was found to be 3 fold in test [1], 54 fold in test [2] and 10 fold in test [3]. In test [4], this molecule returned a mean microarray fluorescence of 741 FU.

As for NYYLSYQTVLS [s10_(short) H199Y/T203Y peptide], the fold increase in affinity compared to WT in test [5] was 9 fold.

In test [6], LPDNHYLSTQTVRSKDPNE [s10 L207R peptide, long format (free 19-mer)] registered a fold weaker affinity than WT (approximated) above 10 fold.

In turn, NHYLSYQTVLS [s10_(short) T203Y peptide] gave a fold increase in affinity compared to WT in test [5] of 2 fold.

With NHYLSTQTVLS [s10_(short) WT peptide N198…208], in test [7], the fold increase in 520 nm signal on complementation was determined as 5 fold.

As for NYYLSTQTVLS [s10_(short) H199Y peptide], the fold increase in affinity compared to WT in test [5] amounted to 5 fold.
